Among the data in publication PMC4557955 are Kd values, retold here.

In this data set the test system is BPs gp33103 repressor (short, prophage-encoded form) (Mycobacteriophage BPs). In words: EMSA. Particulars: EMSA: 20 mM Tris pH 7.5, 10 mM EDTA, 25 mM NaCl, 10 mM spermidine, 1 mM DTT, 1 ug calf thymus DNA in 10 ul, room temperature 30 min, 5% native gel …. In general terms: Mobility shift assays separate free from complexed probe on a gel.
One may read the Kd as the free concentration of one partner at which half of the binding sites on the other are occupied at equilibrium, for simple one-to-one binding. Substance “CACACACGACGCTTGCACCGCGACATATGTCGGTTTTGCAGACGTGCAGGTT (double strand) [O6-L]” yielded a Kd of 10.5 µM.

In the case of “GCATTTTCCAATAGACGACATATGTGCCTATGTTGGTGCACA (double strand) [O61-R]”, the Kd came out at 19.5 µM.

Consider 26-27 intergenic region (O27), for which the Kd came out at 0.9 µM.

Regarding “GCATCACGGACGCTGCTATCCGACATATGTCGTGGATGATCGGGATATGGCC (double strand) [O27-R]”, the equilibrium dissociation constant (Kd) was found to be 11 µM.

In the case of 5-6 intergenic region (O6), the Kd was determined as 2.75 µM.

On to “TCCAATAGACGACATATGTCGCT (double strand) [TIR-6]”, for which the Kd amounted to 9.5 µM. Against the preceding substance, the Kd is about 3.5-fold higher.

Take “TCGGACATGGTGAACGCTTGCGACATATGTCGCCAATGTGTGCATCTTTGCA (double strand) [O55-L]”: the Kd was found to be 8.5 µM.

“CAAACGCAAAAGTTCGGGCGTGGCGCATTTTCCAATAGAC (double strand) [TIR-5]” showed a Kd of 12.5 µM.

As for 60-61 intergenic region (O61), the Kd turned out to be 3.4 µM.

Regarding 54-55 intergenic region (O55), the Kd worked out at 2.6 µM.

For the substance “GCATTTTCCAATAGACCGCATATGTCGCTATGTTGGTGCACA (double strand) [O27-L]”, the dissociation constant Kd is 38.5 µM.

Turning to “33-34 intergenic region wild type (366 bp)”, the dissociation constant (Kd) stood at 2.61 µM.
